Earlier results, collected in publication PMC3437676.

Biological target: Asp25 (UniProt position 515, KEALLDTGADD)
Assay: NMR
Conditions: free model peptide

HIV-1 protease model peptide, residues 20-30 (Human immunodeficiency virus 1)
pKa: near 4.0
